This data set has as its target T1, catalytic domain of human LOXL2 (Homo sapiens, UniProt Q9Y4K0).
T1 construct: made in house; host or cells: 293F cells (HEK293 subclone), transient transfection; purified from culture supernatant on Ni-Sepharose
The data set is described as follows: Amplex Red coupled peroxide assay of lysyl oxidase enzymatic activity (deamination of 1,5-diaminopentane). Conditions: 1,5-diaminopentane substrate, 37° C., FIG. 5. Type of data set: biochemical. The method, then:
A polypeptide containing the catalytic domain of human LOXL2 was produced as described in Example 12 above. Enzymatic activity was assessed using a biochemical assay that couples the production of peroxide (liberated by LOXL2 after deamination of 1,5-diaminopentane) to the HRP-catalyzed conversion of Amplex® red to a fluorescent product (resorufin). Palamakumbura et al. (2002) Anal. Biochem. 300:245-251. Reaction plates were obtained from Corning. Amplex® Red reagent was from Invitrogen (Carlsbad, Calif.). Horseradish peroxidase (HRP), 1,5-diaminopentane, and antifoam were from Sigma (St. Louis, Mo.). All other reagents were of the highest quality available.
Enzyme mixture was assembled by adding 10 uL of pooled peak fractions (see Example 12) to 40 uL assay solution (62.5 mM sodium borate pH 8.0, 5 units/mL HRP, 10 ppm antifoam). Substrate solution contained 50 mM sodium borate, 100 uM Amplex® red reagent, 20 mM 1,5-diaminopentane, 10 ppm antifoam. The reaction was started by mixing 50 ul of enzyme mixture with 50 ul of substrate solution. […] Reaction mixtures were incubated, at 37° C., in a Molecular Devices M5 plate reader configured to measure fluorescence (ex=544 nm, em=590 nm) in kinetics mode for 1 hour. Data were recorded as the slope of the fluorescence response to time.

T1 sequence (Q9Y4K0 with tags, fused parts or gaps): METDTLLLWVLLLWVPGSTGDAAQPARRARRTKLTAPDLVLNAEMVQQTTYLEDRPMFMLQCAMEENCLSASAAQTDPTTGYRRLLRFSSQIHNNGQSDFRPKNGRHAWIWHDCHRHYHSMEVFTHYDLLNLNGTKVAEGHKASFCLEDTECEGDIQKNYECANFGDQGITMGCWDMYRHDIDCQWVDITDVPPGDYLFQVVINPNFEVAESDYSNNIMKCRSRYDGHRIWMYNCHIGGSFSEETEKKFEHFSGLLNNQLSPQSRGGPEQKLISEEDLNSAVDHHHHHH

As for “human LOXL2-derived polypeptide: polypeptide containing the catalytic domain of human LOXL2 with myc epitope tag and His6 purification tag, produced in 293F cells”, the “enzymatic activity (time course of resorufin production, relative fluorescent units)” value (pooled peak fractions of purified polypeptide, 1 hour) is recorded as “measurable enzymatic activity”.
As for `N#CCCN` [βAPN, beta-aminoproprionitrile], the “inhibition of the enzymatic activity of the human LOXL2-derived polypeptide (time course of resorufin production, RFU)” value (2 mM βAPN in reaction, kinetics mode for 1 hour) is given as “inhibited”.
